Data on 40 substances can be found in US20240391961A1.

Chain of 14-3-3ζ nhpSer58 with a FLAG tag at its N-terminus (Homo sapiens (Human)) (P63104 whole entry): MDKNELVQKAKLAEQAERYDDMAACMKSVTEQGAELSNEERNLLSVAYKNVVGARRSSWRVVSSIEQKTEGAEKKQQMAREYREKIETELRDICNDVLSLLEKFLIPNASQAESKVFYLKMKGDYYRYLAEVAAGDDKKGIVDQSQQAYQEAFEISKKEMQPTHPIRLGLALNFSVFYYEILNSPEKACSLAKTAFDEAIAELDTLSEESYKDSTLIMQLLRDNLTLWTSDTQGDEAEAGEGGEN

One assay has as its target 14-3-3ζ nhpSer58 with a FLAG tag at its N-terminus (Homo sapiens (Human)) (UniProt P63104).
Test: not given
Take “A-kinase anchor protein 9 [OS = Homo sapiens], Q99996 1-3907”: the FC turned out to be 0.0561 fold.
As for “Acyl-CoA dehydrogenase family member 10 [OS = Homo sapiens] (from UniProt Q6JQN1 1-1059)”, the FC stood at 4.04 fold.
Still for that read-out and setting: to “Annexin A2 [OS = Homo sapiens] (from UniProt P07355 2-339)” belongs 24.6 fold; to “Apoptosis-stimulating of p53 protein 2 [OS = Homo sapiens] (from UniProt Q13625 1-1128)”, 6.29 fold; to “Arginase-1 [OS = Homo sapiens] (from UniProt P05089 1-322)”, 6.22 fold.
Same read-out and setting: to “BRCA2-interacting transcriptional repressor EMSY [OS = Homo sapiens] (from UniProt Q7Z589 1-1322)” belongs 9.69 fold.
Substance “Centrosomal protein of 55 kDa [OS = Homo sapiens] (from UniProt Q53EZ4 1-464)” registered an FC of 4.5 fold.
“Cleavage stimulation factor subunit 3 [OS = Homo sapiens] (from UniProt Q12996 2-717)” returned an FC of 8.68 fold.
Same read-out and setting: to “Cyclin-dependent kinase 2-associated protein 1 [OS = Homo sapiens] (from UniProt O14519 1-115)” belongs 4.42 fold.
Same read-out and setting: to “Cytochrome c oxidase subunit 5A, mitochondrial [OS = Homo sapiens] (from UniProt P20674 42-150)” belongs 0.223 fold.
For the substance “DNA methyltransferase 1-associated protein 1 [OS = Homo sapiens] (from UniProt Q9NPF5 1-467)”, the FC came to 6.86 fold.
Same read-out and setting: to “Desmoglein-1 [OS = Homo sapiens] (from UniProt Q02413 50-1049)” belongs 7.08 fold.
Still for that read-out and setting: then “E3 ubiquitin-protein ligase MYCBP2 [OS = Homo sapiens] (from UniProt O75592 1-4678)”, with 0.234 fold; and “Exportin-1 [OS = Homo sapiens] (from UniProt O14980 1-1071)”, with 7.95 fold; and “F-box only protein 50 [OS = Homo sapiens] (from UniProt Q6ZVX7 1-275)”, with 4.55 fold.
For “HAUS augmin-like complex subunit 5 [OS = Homo sapiens] (from UniProt O94927 1-633)”, the FC was 7.34 fold.
“Intraflagellar transport protein 22 homolog [OS = Homo sapiens] (from UniProt Q9H7X7 1-185)” had an FC of 16.3 fold.
For the substance “Intraflagellar transport protein 81 homolog [OS = Homo sapiens] (from UniProt Q8WYA0 2-676)”, the FC worked out at 21.9 fold.
“Junction plakoglobin [OS = Homo sapiens] (from UniProt P14923 1-745)” gave an FC of 4.8 fold.
“Keratin, type I cytoskeletal 13 [OS = Homo sapiens] (from UniProt P13646 1-458)”: the FC amounted to 8.89 fold.
The same measure, in the same setting: to “Keratin, type II cytoskeletal 78 [OS = Homo sapiens] (from UniProt Q8N1N4 1-520)” belongs 6.98 fold; to “Ketosamine-3-kinase [OS = Homo sapiens] (from UniProt Q9HA64 1-309)”, 9.56 fold; to “Melanoma-associated antigen D2 [OS = Homo sapiens] (from UniProt Q9UNF1 2-606)”, 63.1 fold.
“Neurofibromin [OS = Homo sapiens] (from UniProt P21359 2-2839)” registered an FC of 0.165 fold.
On the same count and under the same terms, to “Platelet-activating factor acetylhydrolase IB subunit alpha [OS = Homo sapiens] (from UniProt P43034 1-410)” belongs 7.47 fold.
On the same count and under the same terms, to “Polyadenylate-binding protein 1 [OS = Homo sapiens] (from UniProt P11940 1-636)” belongs 0.182 fold; to “Pre-mRNA-splicing factor ATP-dependent RNA helicase DHX15 [OS = Homo sapiens] (from UniProt O43143 1-795)”, 6.21 fold; to “Protein S100-A7 [OS = Homo sapiens] (from UniProt P31151 2-101)”, 64.8 fold.
On the same count and under the same terms, then “Protein S100-A9 [OS = Homo sapiens] (from UniProt P06702 1-114)”, with 4.73 fold; and “Protein cereblon [OS = Homo sapiens] (from UniProt Q96SW2 1-442)”, with 8.91 fold.
Regarding “Protein disulfide-isomerase A6 [OS = Homo sapiens] (from UniProt Q15084 20-440)”, the FC came out at 38.4 fold.
“SAGA-associated factor 29 [OS = Homo sapiens] (from UniProt Q96ES7 1-293)” gave an FC of 9.02 fold.
Still for that read-out and setting: to “Serpin B4 [OS = Homo sapiens] (from UniProt P48594 1-390)” belongs 36.3 fold.
Turning to “Talin-1 [OS = Homo sapiens] (from UniProt Q9Y490 1-2541)”, the FC amounted to 12.7 fold.
Same read-out and setting: then “Translin-associated protein X [OS = Homo sapiens] (from UniProt Q99598 1-290)”, with 6.28 fold; and “exosome complex exonuclease RRP44 [OS = Homo sapiens] (from UniProt Q9Y2L1 1-958)”, with 5.09 fold; and “nuclear pore complex protein Nup98-Nup96 [OS = Homo sapiens] (from UniProt P52948 1-1817)”, with 5.93 fold.
On the same count and under the same terms, then “opioid growth factor receptor [OS = Homo sapiens] (from UniProt Q9NZT2 1-677)”, with 7.06 fold.
The substance “striatin [OS = Homo sapiens] (from UniProt O43815 1-780)” gave an FC of 4.33 fold.

For another assay the target is unchanged. The assay is described as follows: pulldown from HEK293 lysate, MS; nhpSer58 bait vs WT bait (reference).
“14-3-3 protein zeta/delta [OS = Homo sapiens] (from UniProt P63104 1-245)”: the FC turned out to be 0.0821 fold and the Log2(FC) is -3.61 log2.
